Test results taken from patent US20220411531A1 (SUMGEN MAB BEIJING BIOTECH, published 2022).
Residue numbers refer to the chain shown, from its start.

T1: AXL-His (Sino Biological Inc., 6x His labels, molecular weight 47.5 Kda) (UniProt P30530-2 26-440, limits assumed)
T1 construct: Bought reagent; also called target antigen AXL-His; target antigen AXL; not shown: 6x His tag
T1 sequence (looked up): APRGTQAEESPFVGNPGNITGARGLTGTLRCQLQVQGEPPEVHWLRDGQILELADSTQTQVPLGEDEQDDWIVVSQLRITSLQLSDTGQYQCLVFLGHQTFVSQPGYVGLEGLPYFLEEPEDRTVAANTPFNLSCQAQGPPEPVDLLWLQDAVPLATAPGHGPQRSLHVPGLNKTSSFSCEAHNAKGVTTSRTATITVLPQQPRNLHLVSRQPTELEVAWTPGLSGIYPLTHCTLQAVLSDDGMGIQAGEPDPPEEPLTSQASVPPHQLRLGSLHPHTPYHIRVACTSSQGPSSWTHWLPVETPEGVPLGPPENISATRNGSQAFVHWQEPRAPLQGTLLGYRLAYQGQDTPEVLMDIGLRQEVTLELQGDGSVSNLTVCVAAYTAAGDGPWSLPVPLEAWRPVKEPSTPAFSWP

B1: antibody 6G12M31 (antibody, V domains shown)
VH: QVQLVQSGPGLVKPSQSLSLTCSVTGFSISSGYYWNWIRQFPGQKLEWMGYRSYDGSNNYDPSLKNRISITRDTSKNQFFLKLNSVTSEDTATYYCARGWLLHYTMDYWGQGTTVTVSS
VL: DIVMTQSPSSVSVTLGQSASISCRSSRSLLHSNGFTYLYWYLQKPGQSPQLLIYQMSNLASGVPDRFSGSGSGTDFTLKISRVEAEDVGVYYCGQNLELPLTFGGGTKLEIK
B2: antibody 6G12M11 (antibody, human IgG1, kappa, V domains shown)
VH: B1 VH with S23A, D61N
VL: EIVMTQSPSSVSVTLGQSASISCRSSRSLLHSNGFTYLYWYLQKPGQSPQLLIYQMSNLASGVPDRFSGSGSGTDFTLKISRVEAEDVGVYYCGQNLELPLTFGGGTKLEIKR
B3: antibody 6G12M21 (antibody, human IgG1, kappa, V domains shown)
VH: B1 VH with D61N
VL: B2 VL with E1D
B4: antibody 6G12M41 (antibody, V domains shown)
VH: B1 VH with D61G
VL: B1 VL

Columns and labels:
[1] = biological target: T1, AXL-His (Sino Biological Inc., 6x His …); assay: ELISA, AXL-His coated at 1 ug/ml
Protocol: A target antigen AXL-His (Sino Biological Inc.) was coated at 1 μg/ml on an ELISA strip, which was held at 4° C. overnight. After the ELISA strip was washed with PBST, 10% fetal bovine serum was added to the ELISA strip, which was blocked for 1 hour at 37° C. Different concentrations of antibodies 6G12M11, 6G12M21, 6G12M31 and 6G12M41 were added to react at 37° C. for 1 hour. After the ELISA strip was washed with PBST, a horseradish peroxidase-labeled goat anti-mouse secondary antibody (Goat Anti-mouse IgG HRP, Abcam) was added to react for 30 minutes at 37° C. The ELISA strip was washed 5 times with PBST, and patted and dried on absorbent paper to remove residual droplets as much as possible. 100 μl of TMB (eBioscience) was added to each well, and the ELISA strip was held for 1.5 min at room temperature (20±5° C.) in the dark. 100 μl of 2N H₂SO₄ stop solution was added to each well to terminate substrate reaction. The OD value was read at 450 nm by a microplate reader to analyze the binding ability of each antibody to the target antigen AXL. The amino acid sequence of the heavy chain of antibody 6G12M11 is as set forth in SEQ ID NO: 35, and the amino acid sequence of the light chain of the same is as set forth in SEQ ID NO: 36; the amino acid sequence of the heavy chain of antibody 6G12M21 is as set forth in SEQ ID NO: 37, and the amino acid sequence of the light chain of the same is as set forth in SEQ ID NO: 38; the VH of antibody 6G12M31 is as set forth in SEQ ID NO: 42, and the VL of the same is as set forth in SEQ ID NO: 6; and the VH of antibody 6G12M41 is as set forth in SEQ ID NO: 43, and the VL of the same is as set forth in SEQ ID NO: 6.
It can be seen that both antibodies 6G12M11 and 6G12M21 can specifically recognize the target antigen AXL.

[2] = biological target: T1, AXL-His (Sino Biological Inc., 6x His …); assay: SPR (Biacore T-200), antibody captured on chip, AXL-His as analyte
Protocol: In this test, the affinity of AXL-His to each of the antibodies 6G12M11, 6G12M21, 6G12M31, and 6G12M41 was detected by the surface plasmon resonance technology. The test instrument used was BIACOR biomacromolecule interaction instrument (GE Healthcare, T-200). The antibodies 6G12M11, 6G12M21, 6G12M31, and 6G12M41 were immobilized on the surface of a chip by an antibody capturing method, and with all the concentrations set to 0.5 μg/mL, were injected for 60 seconds at a flow rate of 10 μL/min. The prepared AXL-His (Sino Biological Inc., 6× His labels, molecular weight: 47.5 Kda) as a mobile phase was let to flow through the surface of the chip under 5 concentration gradients (8, 4, 2, 1, 0.5 μg/mL) respectively for interaction determination. The AXL-His underwent association for 120 s and dissociation for 1800 s at the flow rate of 30 μL/min.

[3] = biological target: T1, AXL-His (Sino Biological Inc., 6x His …); assay: ELISA, AXL-His coated at 1 µg/ml, anti-human IgG Fab-HRP, OD450
Protocol: TYRO3-Fc (ACRO Biosystems), MER-His (ACRO Biosystems), and AXL-His (Sino Biological Inc.) each were coated at 1 μg/ml on an ELISA strip, which was held at 4° C. overnight. After the ELISA strips were washed with PBST, 10% fetal bovine serum was added to the ELISA strip, which was blocked for 1 hour at 37° C. Antibodies […], 6G12M21, 6G12M31 and 6G12M41 were added to react at 37° C. for 1 hour. After the ELISA strips were washed with PBST, horseradish peroxidase-labeled goat anti-human IgG Fab secondary antibodies (Goat Anti-Human IgG (Fab′)₂ (HRP), Abcam) were added to react for 30 minutes at 37° C. The ELISA strips were washed 5 times with PBST, and patted and dried on absorbent paper to remove residual droplets as much as possible. 100 μl of TMB (eBioscience, #85-00-420) was added to each well, and the ELISA strips were held for 1.5 min at room temperature (20±5° C.) in the dark. 100 μl of 2N H₂SO₄ stop solution was added to each well to terminate substrate reaction. The OD value was read at 450 nm by a microplate reader to analyze the binding ability of antibodies to the proteins.

Binder | EC50 [1] [µg/mL] | Kd [2] [nM] | koff [2] [s⁻¹] | kon [2] [M⁻¹ s⁻¹] | EC50 (read off the curve) [3] [µg/mL]
B1 | 0.0211 | 29.2 | 0.00116 | 39700 | ~0.03
B2 | 0.027 | 11.7 | 0.00114 | 97400 | ~0.03
B3 | 0.0253 | 10.2 | 0.00114 | 112000 | ~0.03
B4 | 0.0176 | 28.7 | 0.00119 | 41500 | ~0.03
